Laboratory results reported in patent publication US20190322746A1 (TESARO, published 2019).

Biological target: T1, T Cell Immunoglobulin and Mucin Domain-3 (TIM-3) on circulating CD14+ monocytes of patients (human, UniProt Q8TDQ0 22-301)
T1 construct: whole, on cells; Endogenous receptor on peripheral blood monocytes of patients in a first-in-human study; also called HAVCR2; TIM-3 receptor
Assay: flow cytometry receptor occupancy on circulating monocytes, whole blood of treated patients
Protocol: To measure binding in the RO assay, whole blood was collected from patients at baseline (Day 1 predose), 48 hours following the first dose (Day 3) and prior to the second dose (Day 15 predose) for the Q2W schedule. […] Samples for occupancy measurement on the Q3W schedule were collected as follows: Day 1 predose, Day 5, Day 15 and Day 22.
All samples were pre-dose, with occupancy measured after a single dose on day 1. The occupancy ratio (free TIM-3:total TIM-3) is determined at various time points (for example, timepoints can include day 1, day 3, day 15, day 22, and day 29).

- binding result: binds
B1: TSR-022 (antibody, human IgG4 S228P, kappa, V domains shown)
VH: EVQLLESGGGLVQPGGSLRLSCAAASGFTFSSYDMSWVRQAPGKGLDWVSTISGGGTYTYYQDSVKGRFTISRDNSKNTLYLQMNSLRAEDTAVYYCASMDYWGQGTTVTVSS
VL: DIQMTQSPSSLSASVGDRVTITCRASQSIRRYLNWYHQKPGKAPKLLIYGASTLQSGVPSRFSGSGSGTDFTLTISSLQPEDFAVYYCQQSHSAPLTFGGGTKVEIKR
notes: Humanized IgG4 (human IGHG4*01 scaffold) with a kappa light chain (IGKC*01); also called anti-TIM-3 antibody; exemplary anti-TIM-3 antibody
